Test results published in paper PMC5959852.

Key:
[1] = target: TAZ1 (transcriptional adaptor zinc-binding 1) domain of CREB binding protein (CBP) (human) (UniProt Q92793); assay: stopped-flow fluorimetry (association kinetics); TAZ1 constant at 0.5-0.9 µM, Hif-1α CAD variant varied 1-15 µM; Trp-418 fluorescence of TAZ1; 293 K; 20 mM HEPES pH 6.9, 1 mM TCEP, 190 mM NaCl; apparent kon from the fast phase; Kd = koff^app/kon^app with koff^app from the displacement experiments
[2] = target: TAZ1 (transcriptional adaptor zinc-binding 1) domain of CREB binding protein (CBP) (human) (UniProt Q92793); assay: stopped-flow fluorimetry (displacement); complex TAZ1/Hif-1α CAD variant (0.75 µM/0.5 µM) mixed with excess TAZ1 W418Y (10-50 µM); kobs at excess equals apparent koff; 293 K; 20 mM HEPES pH 6.9, 1 mM TCEP, 190 mM NaCl
[3] = target: TAZ1 (transcriptional adaptor zinc-binding 1) domain of CREB binding protein (CBP) (human) (UniProt Q92793); assay: ITC; 15 µM TAZ1 in the cell, 149 µM Hif-1α CAD (L813A) in the syringe; 293 K; 20 mM HEPES pH 6.9, 1 mM TCEP, 190 mM NaCl; one-to-one model

Sequence of Hif-1α CAD hydroxylated at Asn-803 (Q16665 776-826): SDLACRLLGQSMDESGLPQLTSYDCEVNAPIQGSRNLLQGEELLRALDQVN
Sequence of C-terminal activation domain of hypoxia inducible factor 1α (Hif-1α CAD), wild type (Q16665 776-826): as above

Substance	Kd [1]	kon [1]	koff [2]	Kd [3]
Hif-1α CAD L812A (from UniProt Q16665 776-826) (domain or fragment)	0.0715 µM	7.12e+06 M⁻¹ s⁻¹	0.509 s⁻¹	
Hif-1α CAD M787A (from UniProt Q16665 776-826) (domain or fragment)	0.00483 µM	6.7e+06 M⁻¹ s⁻¹	0.0324 s⁻¹	
Hif-1α CAD V825A (from UniProt Q16665 776-826) (domain or fragment)	0.00212 µM	1.04e+07 M⁻¹ s⁻¹	0.022 s⁻¹	
Hif-1α CAD L778A (from UniProt Q16665 776-826) (domain or fragment)	0.00365 µM	8.06e+06 M⁻¹ s⁻¹	0.0294 s⁻¹	
Hif-1α CAD T796S (from UniProt Q16665 776-826) (domain or fragment)	0.00323 µM	8.27e+06 M⁻¹ s⁻¹	0.0267 s⁻¹	
Hif-1α CAD L813A (from UniProt Q16665 776-826) (domain or fragment)	0.137 µM	8.52e+06 M⁻¹ s⁻¹	1.17 s⁻¹	0.144 µM
Hif-1α CAD I806V (from UniProt Q16665 776-826) (domain or fragment)	0.00593 µM	9.73e+06 M⁻¹ s⁻¹	0.0577 s⁻¹	
Hif-1α CAD C800A (from UniProt Q16665 776-826) (domain or fragment)	0.0177 µM	6.55e+06 M⁻¹ s⁻¹	0.116 s⁻¹	
Hif-1α CAD hydroxylated at Asn-803 (from UniProt Q16665 776-826) (domain or fragment)	0.172 µM	7.7e+06 M⁻¹ s⁻¹	1.32 s⁻¹	
C-terminal activation domain of hypoxia inducible factor 1α (Hif-1α CAD), wild type (from UniProt Q16665 776-826) (domain or fragment)	0.00336 µM	8.83e+06 M⁻¹ s⁻¹	0.0297 s⁻¹	
Hif-1α CAD L782A (from UniProt Q16665 776-826) (domain or fragment)	0.00456 µM	7.36e+06 M⁻¹ s⁻¹	0.0336 s⁻¹	
Hif-1α CAD L783A (from UniProt Q16665 776-826) (domain or fragment)	0.0036 µM	9.62e+06 M⁻¹ s⁻¹	0.0346 s⁻¹	

Continued, values first:

Kd [1]	kon [1]	koff [2]	Kd [3]	Substance
0.0231 µM	6.1e+06 M⁻¹ s⁻¹	0.141 s⁻¹		Hif-1α CAD L819A (from UniProt Q16665 776-826) (domain or fragment)
0.00378 µM	9.56e+06 M⁻¹ s⁻¹	0.0361 s⁻¹		Hif-1α CAD C780A (from UniProt Q16665 776-826) (domain or fragment)
1.1 µM	6.12e+06 M⁻¹ s⁻¹	6.74 s⁻¹		Hif-1α CAD L795A (from UniProt Q16665 776-826) (domain or fragment)
0.205 µM	6.23e+06 M⁻¹ s⁻¹	1.27 s⁻¹		Hif-1α CAD L818A (from UniProt Q16665 776-826) (domain or fragment)
0.0137 µM	7.28e+06 M⁻¹ s⁻¹	0.0995 s⁻¹		Hif-1α CAD V802A (from UniProt Q16665 776-826) (domain or fragment)
0.16 µM	5.75e+06 M⁻¹ s⁻¹	0.92 s⁻¹		Hif-1α CAD L792A (from UniProt Q16665 776-826) (domain or fragment)
